Results as given in patent CN115433280A (SUZHOU DIMA BIOTECHNOLOGY CO LTD, dated 2022).

T1: CD22 on Raji细胞 (UniProt P20273 20-847, limits assumed)
T1 construct: whole, on cells; also called 天然细胞表面CD22蛋白
T1 sequence (looked up): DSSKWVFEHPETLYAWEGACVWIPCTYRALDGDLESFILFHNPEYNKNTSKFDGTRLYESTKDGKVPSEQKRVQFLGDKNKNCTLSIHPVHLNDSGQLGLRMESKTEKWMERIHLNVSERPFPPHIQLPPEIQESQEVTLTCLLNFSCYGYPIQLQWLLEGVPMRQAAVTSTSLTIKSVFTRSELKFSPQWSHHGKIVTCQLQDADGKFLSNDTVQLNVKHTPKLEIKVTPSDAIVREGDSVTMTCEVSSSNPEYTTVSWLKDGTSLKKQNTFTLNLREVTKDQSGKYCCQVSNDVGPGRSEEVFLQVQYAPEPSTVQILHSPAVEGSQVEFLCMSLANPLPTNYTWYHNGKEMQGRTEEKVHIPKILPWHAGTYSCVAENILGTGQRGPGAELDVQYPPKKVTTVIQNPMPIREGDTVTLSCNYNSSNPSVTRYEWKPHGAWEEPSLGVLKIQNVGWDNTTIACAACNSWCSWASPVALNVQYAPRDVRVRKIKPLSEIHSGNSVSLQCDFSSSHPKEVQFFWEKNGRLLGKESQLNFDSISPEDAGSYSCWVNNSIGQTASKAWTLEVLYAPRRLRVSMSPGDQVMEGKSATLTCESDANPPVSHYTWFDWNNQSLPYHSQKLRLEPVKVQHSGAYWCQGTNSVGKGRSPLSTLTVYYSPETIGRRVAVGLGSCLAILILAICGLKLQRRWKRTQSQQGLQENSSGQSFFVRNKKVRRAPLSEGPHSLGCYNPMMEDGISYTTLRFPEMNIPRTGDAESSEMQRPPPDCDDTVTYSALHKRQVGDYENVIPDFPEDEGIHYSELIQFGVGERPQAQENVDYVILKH

B1: 命名为8B5的兔重组单克隆抗体 (antibody, V domains shown)
VH: QEQLKESGGGLVTPGGSLTLTCTVSGIDLSSYAMGWVRQAPGKGLEYIGIVTYAGSAYYASWARGRFTISKTSTTVDLKITSPTTEDTATYFCARGVDNFYTLPDAFDPWGPGTLVTVS
VL: AYDMTQTPASVSAAVGGTVTINCQASQSISRFLSWYQQKPGQRPKLLIYRASTLASGVSSRFEGSGSGTQFTLTISGVECADAATYYCQQGDTYINVDNPFGGGTEVVVK
notes: Rabbit recombinant monoclonal antibody expressed in 293 cells
B2: 命名为9A3的兔重组单克隆抗体 (antibody, V domains shown)
V domain 1: QSVEESGGRLVTPGTPLTLTCTVSGIDLSSYWMNWVRQAPGKGLEWIGIIWSDDNTYYANWAKGRFTISKTSSTTVDLTITSPTTEDTATYFCARGYVGDIWGPGTLITVS
V domain 2: ALVMTQTPSSVDVAVGGTVTIRCQASQNIYSGLAWYQQKPGQPPKLLIYGASNLASGVSSRFKGSGSGTQFTLTISGVECADAATYYCQQTYTSDNVDNPFGGGTEVVVE
notes: as for B1
B3: 命名为10F9的兔重组单克隆抗体 (antibody, V domains shown)
VH: QSVEESGGRLVTPGTPLTLTCTVSGFSLNTDAMIWVRQAPGKGLEYIGIIGSSGSAFFASWAKGRFTISKTSTTVDLTIISPTTEDTATYFCARFTGYGGYGRGGMDPWGPGTLVTVSS
VL: AQVLTQTPSSVSAAVGGTVTINCQSSESVHNNNWLSWYQQKPGQPPKLLIYKASTLASGVPSRFSGSGSGTQFTLTISGVQCDDAATYYCQATYNSGGWYVAFGGGTEVVVK
notes: as for B1

Assays:
[1] = molecular target: T1, CD22 on Raji细胞; assay: flow cytometry on Raji cells, antibody at several concentrations
[2] = molecular target: CD22 FC融合标签蛋白 (UniProt P20273); assay: indirect ELISA, B cell clone supernatant on coated CD22 protein (1 μg/ml)
[3] = molecular target: CD22 FC融合标签蛋白 (UniProt P20273); assay: ELISA, purified antibody at dilution 25K on coated CD22 protein (1 μg/ml)
[4] = molecular target: CD22 FC融合标签蛋白 (UniProt P20273); assay: ELISA, purified antibody at dilution 125K on coated CD22 protein (1 μg/ml)
[5] = molecular target: CD22 FC融合标签蛋白 (UniProt P20273); assay: ELISA, purified antibody at dilution 625K on coated CD22 protein (1 μg/ml)
[6] = molecular target: CD22 FC融合标签蛋白 (UniProt P20273); assay: ELISA, purified antibody at dilution 3125k on coated CD22 protein (1 μg/ml)
[7] = molecular target: CD22 FC融合标签蛋白 (UniProt P20273); assay: ELISA, purified antibody at dilution 15625k on coated CD22 protein (1 μg/ml)
[8] = molecular target: CD22 FC融合标签蛋白 (UniProt P20273); assay: ELISA, purified antibody at dilution 1K on coated CD22 protein (1 μg/ml)

Binder | binding result [1] | OD450 [2] | ELISA reading (OD) at dilution 25K [3] | ELISA reading (OD) at dilution 125K [4] | ELISA reading (OD) at dilution 625K [5] | ELISA reading (OD) at dilution 3125k [6] | ELISA reading (OD) at dilution 15625k [7] | ELISA reading (OD) at dilution 1K [8]
B1 | binds | 1.93 | 3.52 | 1.92 | 0.528 | 0.203 | 0.146 | –
B2 | binds | 2.12 | 3.1 | 1.33 | 0.382 | 0.18 | 0.12 | 3.95
B3 | binds | 1.86 | 3.37 | 1.39 | 0.405 | 0.171 | 0.125 | –
